Assay results: article PMC9771723 (iScience, 2022)

Biological target: the molecule itself
Test: cross-linking

MSLLTEVETPIRNEWGCRCNDSSDPLVVAASIIGILHLILWILDRL (domain or fragment) [M2(1-46) of influenza A/Hong Kong/8/68 (H3N2) in nanodiscs]
stoichiometry N: 4
